Data: the RNAGym collection of RNA variant scans (doi:10.1073/pnas.2313332121)

B1: TPR t1 (parent)
chain: GACCAAUCUGCCCUCAGAGCUCGAGAACAUCUUCGGAUGCAGAGGAGGCAGGCUUCGGUGGCGCGAUAGCGCCAACGUCCUCAACCUCCAAUGCAUCCCACCACAUGAUGAUGCCUGAAGAGCCUUGGUUUUUUG

Variants of: B1
Experiment: polymerase ribozyme fitness, log enrichment relative to wild type (log ratio); higher = more active; in vitro selection for triplet polymerase activity
Outline: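 Mutant libraries were PCR-built and transcribed for each subunit of a heterodimeric triplet polymerase ribozyme and selected for one round in triplicate at −7 °C, frozen, before gel excision of extended constructs and streptavidin-bead capture. Input and output libraries were Illumina-sequenced, keeping genotypes with ≥10 input reads and ≥1 read per output. Fitness is a logarithmic ratio of genotype to wild-type enrichment, in base 2, using inverse-variance-weighted replicate averages.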

In order of falling “polymerase ribozyme fitness (log ratio)” value:
1. A74C G120C  1.48
2. G10A G60C C124A  1.12
3. U96A C104U C124U  0.864
4. C8G C13G G36A C72U U78A A111C  0.397
5. C15U A43U G69U C88U A91C G120C  0.39
6. G60U G135C  0.0909
7. A74C G120U  0.00369
8. G61U U133A  -0.172
9. G58A G60C  -0.284
10. G42U G61U C123A  -0.3
11. A2G C13U C53U C72G  -0.398
12. G52U U132A  -0.57
13. A6C G52A C79U U87A  -0.58
14. U7C G39A  -0.619
15. C8G C102U U106C  -0.803
16. A6U G57C G63A A90G  -0.878
17. C12U A50U U59G A119U  -0.98
18. G63U U112A G120A  -1.02
19. A6C C72A  -1.05
20. G52C C70U U106A  -1.07
21. C64U C88G  -1.13
22. A74U C80U  -1.18
23. G69U C102U  -1.18
24. C8G G71A C82U C101A  -1.2
25. G44A C89G C115A C124A U129A  -1.46
26. C49U C62G G71A  -1.5
27. C8A U54G A105G U112A C123G C124A U132C  -1.56
28. G42U G44U C49A G69U U87G A119U G135A  -1.59
29. C12A G17U U96A G120U  -1.6
30. G47C G71U  -1.65
31. C104A G120U G127C  -1.76
32. C20U C70U A95G  -1.86
33. A50G U54G A95C  -1.88
34. C15U C79U  -1.97
35. G10A C13U A27U  -2.05
36. G42A C70U  -2.09
37. G63C U125G  -2.2
38. C12U U14A  -2.23
39. C12U G45C C102A  -2.34
40. C34A C64U  -2.37
41. A37G C89A  -2.41
42. G48A C80A  -2.53
43. C11U C15U G61A U78A G93A  -2.54
44. G57U C62G U112A  -2.56
45. U7C A91U C94G  -2.67
46. G23A G120C  -2.89
47. G71U A105C  -2.99
48. A46U A74U A91G C123G  -3.09
49. G63A G117U  -3.18
50. G69U C70G U92C G122A U125A  -3.32
51. G19U G45C A91C A111C  -3.35
52. C49U C53U C72G C114U  -3.44
53. A2G G52U A91U A95C  -3.47
54. C4U U54A C72G C82A C114A  -3.49
55. C13G G71C  -3.5
56. C11G C28A C56U C124G  -3.7
57. A16G G113C  -3.85
58. A46G C53U C89U G128A  -3.9
59. C34A C70A  -4.06
60. A6U C8G C13U C20U G51A G61U  -4.27
61. A95U U96A C101G U106C C124A  -4.41
62. G10U U109A  -4.67
63. A16C G25U A26G  -4.77
64. G48A G93A U96C C99U  -4.9
65. A46U A90U A105U C115U C124U  -5.04
66. C31A U81C C124A  -5.14
67. C12U C20A A74U G128A  -5.15
68. C15U G36C U54C C85A G117U G127C  -5.33
69. G35C C73A  -5.42
70. C20U C28G G45A G52U G69U C114U  -5.61
71. C99U G128A U129A  -5.76
72. C82G A108G A111G A121C  -5.85
73. C22G G71U C89A  -5.9
74. C31A U54C U96A A111G  -5.95
75. G35C C72U C114U  -6.13
76. A2U U59C C62G C94U C123A U125G  -6.19
77. G42U G44A C56U G61C A68U C85U G110U U116C  -6.46
78. C13G C85U C88A C102A A105G C124U  -6.67
79. U54G C56G C80G A84G G117U  -6.69
80. G10C G110C  -6.69
81. G25U G39U G44U C73A  -6.92
82. G25C C70G G107A A111U U129G  -7.14
83. G23U G52A C53G C115U  -7.2
